Experimental data: article PMC12286842 (Nature, 2025)

Target: T1, ^15N-labelled ubiquitin (WT, untagged) (UniProt P0CG48 1-76, ^15N-labelled)
T1 construct: ubiquitin, the 76-residue mature protein; also called ^15N-ubiquitin; source: E. coli BL21 (DE3) in M9 medium with ^15N-ammonium chloride, purified (cation exchange, Superdex 75 SEC)
Assay: NMR titration; ^1H-^15N HSQC of ^15N-ubiquitin titrated with unlabelled UBR4-UBL; 25 mM NaPi pH 7.0, 150 mM NaCl, 1 mM TCEP, 10% D2O; global fit of chemical shift perturbations to 1:1 binding
Conditions: both partners purified

Kd: 124 µM
B1: 6×His-tagged UBR4-UBL (residues 4340–4463) (domain or fragment, human, UniProt Q5T4S7-1 4340-4463, looked up)
chain: YPEENEVTEFFVTLEKDPQQEDFLQGRMPGNPYSSNEPGIGPLMRDIKNKICQDCDLVALLEDDSGMELLVNNKIISLDLPVAEVYKKVWCTTNEGEPMRIVYRMRGLLGDATEEFIESLDSTT
notes: UBR4 ubiquitin-like (UBL) domain, residues 4340–4463 of UniProt Q5T4S7-1; also called UBL domain; UBR4 UBL domain; source: E. coli BL21 (DE3), purified (Ni-NTA HisTrap FF, Superdex 75 SEC)
